Data on 4 molecules can be found in article PMC4060006, “SM proteins Sly1 and Vps33 co-assemble with Sec17 and SNARE complexes to oppose SNARE disassembly by Sec18” (eLife, 2014).

The chains are these.
T1: Golgi SNARE complex assembled on immobilized GST-Sed5 SNARE domain (S. cerevisiae, UniProt Q01590 170-319; P25385 1-222; P22804 1-123; P22214 1-188)
T1 construct: Sed5, Qa-SNARE, S. cerevisiae, aa170-319; Bos1, Qb-SNARE, S. cerevisiae, aa1-222; Bet1, Qc-SNARE, S. cerevisiae, aa1-123; Sec22, R-SNARE, S. cerevisiae, aa1-188; quaternary SNARE bundle, no membranes; also called Golgi SNARE bundle; S.C; source: assembled on glutathione sepharose from proteins made in E. coli; not shown: GST, N-terminal, kept; His6, N-terminal, …
T1 sequence (looked up) 1: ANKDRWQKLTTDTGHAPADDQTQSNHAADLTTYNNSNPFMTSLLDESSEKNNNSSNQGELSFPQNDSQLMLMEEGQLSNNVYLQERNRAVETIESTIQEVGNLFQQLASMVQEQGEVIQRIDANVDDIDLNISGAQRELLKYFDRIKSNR
T1 sequence (looked up) 2: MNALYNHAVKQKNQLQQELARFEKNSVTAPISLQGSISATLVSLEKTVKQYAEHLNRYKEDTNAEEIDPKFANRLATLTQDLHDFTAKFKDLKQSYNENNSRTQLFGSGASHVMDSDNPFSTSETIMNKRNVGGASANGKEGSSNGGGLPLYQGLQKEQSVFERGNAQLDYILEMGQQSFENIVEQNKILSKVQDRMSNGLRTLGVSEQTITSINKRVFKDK
T1 sequence (looked up) 3: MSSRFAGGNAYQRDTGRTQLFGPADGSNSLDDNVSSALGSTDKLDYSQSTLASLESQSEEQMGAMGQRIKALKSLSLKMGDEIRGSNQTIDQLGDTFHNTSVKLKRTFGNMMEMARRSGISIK
T1 sequence (looked up) 4: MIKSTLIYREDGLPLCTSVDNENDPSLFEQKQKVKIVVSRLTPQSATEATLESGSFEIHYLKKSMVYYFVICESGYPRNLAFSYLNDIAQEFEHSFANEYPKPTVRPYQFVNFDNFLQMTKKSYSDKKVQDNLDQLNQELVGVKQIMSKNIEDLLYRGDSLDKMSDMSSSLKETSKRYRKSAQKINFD

T2: Sec17–Golgi SNARE complex (Sec17 bound to the Golgi SNARE complex on GST-Sed5 SNARE domain) (S. cerevisiae, UniProt Q01590 170-319; P25385 1-222; P22804 1-123; P22214 1-188; P32602 1-292)
T2 construct: Sed5, Qa-SNARE, S. cerevisiae, aa170-319; Bos1, Qb-SNARE, S. cerevisiae, aa1-222; Bet1, Qc-SNARE, S. cerevisiae, aa1-123; Sec22, R-SNARE, S. cerevisiae, aa1-188; Sec17, S. cerevisiae; in most experiments Sec17 and Sly1 were added together to the immobilised SNARE complex; also called SNARE-Sec17 complex; Sec17–SNARE complex; source: assembled on …
T2 sequence (looked up) 1: T1 sequence (looked up) 1
T2 sequence (looked up) 2: T1 sequence (looked up) 2
T2 sequence (looked up) 3: T1 sequence (looked up) 3
T2 sequence (looked up) 4: T1 sequence (looked up) 4
T2 sequence (looked up) 5: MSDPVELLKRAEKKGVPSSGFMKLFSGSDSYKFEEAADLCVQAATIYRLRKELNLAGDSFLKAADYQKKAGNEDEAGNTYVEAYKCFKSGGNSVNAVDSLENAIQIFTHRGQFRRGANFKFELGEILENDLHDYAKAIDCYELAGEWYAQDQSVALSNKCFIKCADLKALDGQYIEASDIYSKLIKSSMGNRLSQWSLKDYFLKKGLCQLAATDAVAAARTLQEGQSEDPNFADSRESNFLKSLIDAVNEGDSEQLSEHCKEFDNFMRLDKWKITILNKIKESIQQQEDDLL

B1: Vps33 (natural protein, S. cerevisiae, UniProt P20795 1-691, looked up)
chain: MNRFWNTKKFSLTNADGLCATLNEISQNDEVLVVQPSVLPVLNSLLTFQDLTQSTPVRKITLLDDQLSDDLPSALGSVPQMDLIFLIDVRTSLRLPPQLLDAAQKHNLSSLHIIYCRWKPSFQNTLEDTEQWQKDGFDLNSKKTHFPNVIESQLKELSNEYTLYPWDLLPFPQIDENVLLTHSLYNMENVNMYYPNLRSLQSATESILVDDMVNSLQSLIFETNSIITNVVSIGNLSKRCSHLLKKRIDEHQTENDLFIKGTLYGERTNCGLEMDLIILERNTDPITPLLTQLTYAGILDDLYEFNSGIKIKEKDMNFNYKEDKIWNDLKFLNFGSIGPQLNKLAKELQTQYDTRHKAESVHEIKEFVDSLGSLQQRQAFLKNHTTLSSDVLKVVETEEYGSFNKILELELEILMGNTLNNDIEDIILELQYQYEVDQKKILRLICLLSLCKNSLREKDYEYLRTFMIDSWGIEKCFQLESLAELGFFTSKTGKTDLHITTSKSTRLQKEYRYISQWFNTVPIEDEHAADKITNENDDFSEATFAYSGVVPLTMRLVQMLYDRSILFHNYSSQQPFILSREPRVSQTEDLIEQLYGDSHAIEESIWVPGTITKKINASIKSNNRRSIDGSNGTFHAAEDIALVVFLGGVTMGEIAIMKHLQKILGKKGINKRFIIIADGLINGTRIMNSIS
notes: Vps33, SM protein of the vacuole, S. cerevisiae; also called vacuole SM protein; late endolysosomal SM; source: insect cells, Baculovirus system, purified
B2: Sec17 (natural protein, S. cerevisiae, UniProt P32602 1-292, looked up)
chain: T2 sequence (looked up) 5
notes: Sec17, S. cerevisiae; construct CBD-(intein)-Sec17 in pTYB12; an intein tag is as a rule cut off during purification; also called α-SNAP homolog; Sec18 adapter; source: E. coli (pRIL plasmid), purified
B3: GST-Sed5 full cytoplasmic domain (aa1-319) (domain or fragment, S. cerevisiae, UniProt Q01590 1-319, looked up)
chain: MNIKDRTSEFQQSVLSYKKRNKNFREQQRERLQEKESENFANNTTGNGKSVSEFQKKASGIAHEISSTAQLLSKLAVLAKRKPMFNDNPVEIAELSFLIKRKIYAIEQSLVQLSQLKKTDVNGNTSNQSSKQPSAVQHSKNVVNLLNTQMKNISGSFKDVLEERQRLEMANKDRWQKLTTDTGHAPADDQTQSNHAADLTTYNNSNPFMTSLLDESSEKNNNSSNQGELSFPQNDSQLMLMEEGQLSNNVYLQERNRAVETIESTIQEVGNLFQQLASMVQEQGEVIQRIDANVDDIDLNISGAQRELLKYFDRIKSNR
notes: Sed5, Golgi Qa-SNARE, S. cerevisiae, full cytoplasmic domain aa1-319 with N-peptide and Habc segments, no transmembrane domain; also called GST-Sed5FL; Sed5FL; not shown: GST, N-terminal, kept
B4: Sly1 (full length, aa1-667) (natural protein, S. cerevisiae, UniProt P22213 1-666, looked up)
chain: MAVEEIASRKDISLRDMQISAILKMLFLNKDLNNNDNITTITDDIFNQQEIIWKVLILDIKSTATISSVLRVNDLLKAGITVHSLIKQDRSPLPDVPAIYFVSPTKENIDIIVNDLKSDKYSEFYINFTSSLPRNLLEDLAQQVSITGKSDKIKQVYDQYLDFIVTEPELFSLEISNAYLTLNDPKTTEEEITGLCANIADGLFNTVLTINSIPIIRAAKGGPAEIIAEKLGTKLRDFVINTNSSSTSTLQGNDSLERGVLIILDRNIDFASMFSHSWIYQCMVFDIFKLSRNTVTIPLESKENGTDNTTAKPLATKKYDIEPNDFFWMENSHLPFPEAAENVEAALNTYKEEAAEITRKTGVTNISDLDPNSNNDTVQIQEVVKKLPELTAKKNTIDTHMNIFAALLSQLESKSLDTFFEVEQDPGSTKTRSRFLDILKDGKTNNLEDKLRSFIVLYLTSTTGLPKDFVQNVENYFKENDYDINALKYVYKLREFMQLSNMSLQNKSLEDGSDSAFKPSNLTLSGIYGLTEGKLQGGVGSLISGIKKLLPEKKTIPITNVVDAIMDPLNSSQKNLETTDSYLYIDPKITRGSHTRKPKRQSYNKSLVFVVGGGNYLEYQNLQEWAHSQLHNPKKVMYGSTAITTPAEFLNEISRLGASNSSNNDA
notes: Sly1, Golgi SM protein, S. cerevisiae, printed as full-length aa1-667; construct His6-(tev)-Sly1; as I recall the UniProt entry has 666 residues; the printed 667 may count the stop codon; also called His6-Sly1; Golgi SM protein; source: E. coli (pRIL plasmid), purified (Ni-NTA)

What all share (settings): both partners purified
Assay [1] has as its target T3, Sec17–vacuole SNARE complex (Sec17 bound to the vacuole SNARE complex on Vam3-GST) (S. cerevisiae, UniProt Q12241 1-264; Q04338 1-194; P32912 190-316; Q12255 1-231; P32602 1-292).
T3 construct: Vam3, Qa-SNARE, S. cerevisiae, aa1-264; Vti1, Qb-SNARE, S. cerevisiae, aa1-194; Vam7, Qc-SNARE, S. cerevisiae, SNARE domain aa190-316; Nyv1, R-SNARE, S. cerevisiae, aa1-231; Sec17, S. cerevisiae; in most experiments Sec17 and the SM were added together to the immobilised SNARE complex; also called SNARE–Sec17 complex; Sec17–SNARE complex; source: assembled …
Nature of the assay: pull-down; stoichiometry: complexes assembled on immobilised SNARE complex under saturation binding conditions; SDS-PAGE, SYPRO Ruby, band intensities against standard curves of the purified proteins; apparent.

The target in assay [2] is T4, vacuole SNARE complex assembled on immobilized Vam3-GST (S. cerevisiae, UniProt Q12241 1-264; Q04338 1-194; P32912 190-316; Q12255 1-231).
T4 construct: Vam3, Qa-SNARE, S. cerevisiae, aa1-264; Vti1, Qb-SNARE, S. cerevisiae, aa1-194; Vam7, Qc-SNARE, S. cerevisiae, SNARE domain aa190-316; Nyv1, R-SNARE, S. cerevisiae, aa1-231; quaternary SNARE bundle, no membranes; also called vacuolar SNARE complex; SNARE bundle; source: assembled on glutathione sepharose from proteins made in E. coli; not shown: GST, C-terminal, …
T4 sequence (Q12241 1-264, chain 1 of 4): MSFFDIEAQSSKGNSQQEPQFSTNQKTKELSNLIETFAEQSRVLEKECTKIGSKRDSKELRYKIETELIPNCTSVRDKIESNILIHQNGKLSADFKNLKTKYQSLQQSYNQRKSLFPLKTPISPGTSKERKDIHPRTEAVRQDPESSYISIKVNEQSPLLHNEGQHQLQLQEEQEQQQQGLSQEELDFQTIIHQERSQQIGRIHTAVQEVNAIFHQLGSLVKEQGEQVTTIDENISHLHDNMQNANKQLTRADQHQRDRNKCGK
T4 sequence (Q04338 1-194, chain 2 of 4): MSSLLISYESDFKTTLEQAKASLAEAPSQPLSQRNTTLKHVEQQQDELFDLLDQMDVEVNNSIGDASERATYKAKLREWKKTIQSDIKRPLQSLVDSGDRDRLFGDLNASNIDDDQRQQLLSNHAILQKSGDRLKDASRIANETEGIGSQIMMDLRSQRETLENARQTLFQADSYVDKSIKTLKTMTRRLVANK
T4 sequence (P32912 190-316, chain 3 of 4): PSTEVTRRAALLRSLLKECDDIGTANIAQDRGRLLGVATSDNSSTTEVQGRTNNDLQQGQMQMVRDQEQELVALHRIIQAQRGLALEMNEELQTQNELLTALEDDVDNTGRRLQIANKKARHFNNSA
T4 sequence (Q12255 1-231, chain 4 of 4): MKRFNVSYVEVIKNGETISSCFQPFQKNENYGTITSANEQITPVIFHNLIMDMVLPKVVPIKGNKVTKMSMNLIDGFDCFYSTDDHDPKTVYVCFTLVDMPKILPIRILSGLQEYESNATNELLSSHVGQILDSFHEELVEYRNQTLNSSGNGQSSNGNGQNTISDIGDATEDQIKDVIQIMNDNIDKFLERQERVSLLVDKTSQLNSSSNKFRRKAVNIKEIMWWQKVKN
Nature of the assay: pull-down; quantitative: immobilised SNARE complex, SM concentration varied, with or without Sec17, 30°C; SYPRO Ruby with standard curves; fractional saturation against free SM, one-site model; apparent (Kdobs), non-equilibrium measurements.

The target in assay [3] is T3, Sec17–vacuole SNARE complex (Sec17 …). Described as above.
For assay [4], the target named is T4, vacuole SNARE complex assembled on …. Kind of assay: pull-down; stoichiometry: complexes assembled on immobilised SNARE complex under saturation binding conditions; SDS-PAGE, SYPRO Ruby, band intensities against standard curves of the purified proteins; apparent.
Assay [5] has as its target T1, Golgi SNARE complex assembled on …. The description is as above.
Assay [6] has as its target B4. Nature of the assay: pull-down; full cytoplasmic domain of Sed5 (GST-Sed5FL, 500 nM) immobilised without assembled SNARE complex; Sly1 (10 µM) and Sec17; 30°C; Coomassie.
For assay [7], the target named is T2, Sec17–Golgi SNARE complex (Sec17 bound …). Nature of the assay: pull-down; stoichiometry: complexes assembled on immobilised SNARE complex under saturation binding conditions; SDS-PAGE, SYPRO Ruby, band intensities against standard curves of the purified proteins; apparent.
For assay [8] the target is unchanged. Nature of the assay: pull-down; quantitative: immobilised SNARE complex, SM concentration varied, with or without Sec17, 30°C; SYPRO Ruby with standard curves; fractional saturation against free SM, one-site model; apparent (Kdobs), non-equilibrium measurements.

T3 sequence (Q12241 1-264, chain 1 of 4): as the sequence (Q12241 1-264, chain 1 of 4) above
T3 sequence (Q04338 1-194, chain 2 of 4): as the sequence (Q04338 1-194, chain 2 of 4) above
T3 sequence (P32912 190-316, chain 3 of 4): as the sequence (P32912 190-316, chain 3 of 4) above
T3 sequence (Q12255 1-231, chain 4 of 4): as the sequence (Q12255 1-231, chain 4 of 4) above

On to B1, for which, in assay [1], the “stoichiometry N” value worked out at 1 Vps33 per SNARE complex. In addition, the Kd is 1600 ± 100 nM in assay [2] and 300 ± 10 nM in assay [3].
As for B2, the “stoichiometry N” value in assay [4] and in assay [5] was 3 Sec17 per SNARE complex each time.
As to B3, the binding result in assay [6] is “binds”.
Turning to B4, the “stoichiometry N” value in assay [7] was 1 Sly1 per SNARE complex. The Kd in assay [8] is 1000 ± 100 nM.
